# From the nanobody polyreactivity screen of Harvey et al. (2022)
# Test: yeast display, Sf9 membrane polyspecificity reagent, FACS + sequencing; frameworks hold sequencing errors
# Method in brief: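 In a synthetic yeast display library (Saccharomyces cerevisiae BJ5465), nanobody expression was induced with galactose for 36–48 hours. FACS gates were set low and high (top ~1%) using anti-HA fluorescence for expression and streptavidin fluorescence for binding of the Sf9 membrane reagent. Each polyreactivity label is drawn from the gate of origin.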
row,Sequence,polyreactivity (PSR sort gate)
1,QVQLVESGGGLVQAGGSLRLSCAASGSIFRAYTMGWYRQAPGKERELVAAINWSGGSTYYADSVKGRFTISRDNAKNTVYLQMNSLKPEDTAVYYCAKRWASWRYDYWGQGTQVTVSS,high polyreactivity
2,QVQLVESGGGLVQAGGSLRLSCAASGSIFRDNAMGWYRQAPGKERELVAAINVRDGDTFYADSVKGRFTISRDNAKNTVYLQMNSLKPEDTAVYYCAVPGATSYFAYDSWGQGTQVTVSS,low polyreactivity
3,QVQLVESGGGLVQAGGSLRLSCAASGSIFRFKAMGWYRQAPGKERELVAAITSSGGSTYYADSVKGRFTISRDNAKNTVYLQMNSLKPEDTAVYYCAAGARRVGRYYWGQGTQVTVSS,high polyreactivity
4,QVQLVESGGGLVQAGGSLRLSCAASGSIFRFYAMGWYRQAPGKERELDAVITSTGRKYYADSVKGRFTISRDNAKNTGYLQMTSLKPEDTAVYYCNAAEAGKGAYAYDYWGQGTQVTVSS,low polyreactivity
5,QVQLVESGGGLVQAGGSLRLSCAASGSIFRFYAMGWYRQAPGKERELVAAITSGGSTNYADSVKGRFTISRDNAKNTVYLQMNSLKPEDTAVYYCAAELVYFFIYDYWGQGTQVTVSS,low polyreactivity
6,QVQLVESGGGLVQAGGSLRLSCAASGSIFRFYGMGWYRQAPGKERELVATISWSSGRTSYADSVKGRFTISRDNAKNTVYLQMKSLKPEDTAVYYCNADQWDKSYDYWGQGTQVTVSS,high polyreactivity
7,QVQLVESGGGLVQAGGSLRLSCAASGSIFRFYTMGWYRQAPGKERELVAAIRYRGTSTYYADSVKGRFTISRDNAKNTVYLQMNSLKPEDTAVYYCATRNIYFSSVDYWGQGTQVTVSS,high polyreactivity
8,QVQLVESGGGLVQAGGSLRLSCAASGSIFRGNAMGWYRQAPGKERELVAAINKSGGSTYYADSVKGRFTISRDNAKNTVYLQMNSLKPEDTAVYYCAAVYKRLQPYGYWGQGTQVTVSS,high polyreactivity
9,QVQLVESGGGLVQAGGSLRLSCAASGSIFRGNAMGWYRQAPGKERELVAAISGSAGRTYYADSVKGRFTISRDNAKNTVYLQMNSLKPEDTAVYYCAADSFKGYDYWGQGTQVTVSS,high polyreactivity
10,QVQLVESGGGLVQAGGSLRLSCAASGSIFRGNAMGWYRQAPGKERELVAAISKSGGSTYYADSVKGRFTISRDNAKNTVNLQMNSLKPEDTAVYYCAARTTYLYGMYYWGQGTQVTVSS,low polyreactivity
11,QVQLVESGGGLVQAGGSLRLSCAASGSIFRGNSMGWYRQAPGKERELVAVITWSGGSTYYADSVKGRFTISRDNAKNTVYLQMNSLKPEDTAVYYCNAARKQRVYFAGDYWGQGTQVTVSS,high polyreactivity
12,QVQLVESGGGLVQAGGSLRLSCAASGSIFRGYAMGWYRQAPGKERELVAAITKIGASTYYADSVKGRFTISRDNAKNTVYLQMYSLKPEDTAVYYCNKDRGITPYRAYWGMDYWGQGTQVTVSS,low polyreactivity
13,QVQLVESGGGLVQAGGSLRLSCAASGSIFRGYAMGWYRQAPGKERELVAAITKRGGNTYYADSVKGRFTISRDNAKNTVYLQMNSLKPDDTAVYYCAKAGWGKWVYAQMDYWGQGTQVTVSS,high polyreactivity
14,QVQLVESGGGLVQAGGSLRLSCAASGSIFRGYAMGWYRQAPGKERELVAAITSSGGSTNYADSVKGRFTISRDNAKNTVYLQMNSLKPEDTAVYYCAKAPGLWHLIQRMDYWGQGTQVTVSS,low polyreactivity
15,QVQLVESGGGLVQAGGSLRLSCAASGSIFRGYTMGGYRQAPGKETELVAAISRSGGSTYYADSVKGRFTISRDNAKNTVYLQMNSLKPEDTAVYYCAADSFRTRAIYDYWGQGTQVTVSS,high polyreactivity
16,QVQLVESGGGLVQAGGSLRLSCAASGSIFRHYTMGWYRQAPGKERELVAVISSGGNTNYADSVKGLFTISRDNAKYTDYLQLNSLKPEDTAVYYCAAGGYDVYHDPYYYWGQGTQVTVSS,high polyreactivity
17,QVQLVESGGGLVQAGGSLRLSCAASGSIFRINAMGWYRQAPGKERELVAAISTSGGTTYYADSVKGRFTISRDNAKNTVYLQMNSLKPEDTAVYYCSARRVTSPFGSDSWGQGTQVTVSS,low polyreactivity
18,QVQLVESGGGLVQAGGSLRLSCAASGSIFRIYAMGWYRLEPGKERELVSGISKSVGSTYYADSVKGRFTISRDNAKNTVYLQMNSLKTEDTAVYYCNARRPSWGLDKYDYWGQGTQVTVSS,low polyreactivity
19,QVQLVESGGGLVQAGGSLRLSCAASGSIFRIYAMGWYRQAPGKEREFVAAISSRGGRTYYADSVKGRFTISRDNAKNTVYLQMNSLKPEDTAVYYCNARATRGSYYEYEYWGQGTQVTVSS,high polyreactivity
20,QVQLVESGGGLVQAGGSLRLSCAASGSIFRIYAMGWYRQAPGKERELVAAISRGSTRTYYADSVKGRFTISRDNAKNTVYLQMNSLKPEDTAVYYCAKRGISPYGYWGQGTQVTVSS,high polyreactivity
21,QVQLVESGGGLVQAGGSLRLSCAASGSIFRKYALGWYRQAPGKERELVAAIRSSGGSTYYADSVKGRFTISRDNAKNTVYLQMNSLKPEDTAVYYCAARYYRPSRYDYWGQGTQVTVSS,high polyreactivity

row,Sequence,polyreactivity (PSR sort gate)
1,QVQLVESGGGLVQAGGSLRLSCAASGSIFRLNAMGWYRQAPGKERELVAAISRNTGRTYYADSVKGRFTISRDNAKNTVYLQMNSLKPEDTAVYYCAADRSPTGYVRVYYWGQGPQVTVSS,high polyreactivity
2,QVQLVESGGGLVQAGGSLRLSCAASGSIFRLNAMGWYRQAPGKERELVARIDSSGSTNYADSVKGRFTISRDNAKNTVYLQMNSLKPEDTAVYYCAAGLVLIVGMDSWGQGTQVTVSS,low polyreactivity
3,QVQLVESGGGLVQAGGSLRLSCAASGSIFRLNTMGWYRQAPGKERELVAAIFTSGGSTYADSVKGRFTISRDNAKNTVYLQMNSLKPEDTAVYYCAGMDYWGQGTQVTVSS,low polyreactivity
4,QVQLVESGGGLVQAGGSLRLSCAASGSIFRLYAMGWYRPAPGKERELVATITSGGNTYADSVKGRFTISRDNAKNTVYLQMNSLKPEDTAVYYCAARYRYRGTQRPYVGYYRNDYWGQGTQVTVSS,high polyreactivity
5,QVQLVESGGGLVQAGGSLRLSCAASGSIFRLYAMGWYRQAPGKERELVAAISRRGGSTNYADSVKGRFTISRDNAKNTVYLQMNSLKPEDTAVYYCARDVDTHYPYAYDYWGQGTQVTVSS,high polyreactivity
6,QVQLVESGGGLVQAGGSLRLSCAASGSIFRLYGMGWYRQAPGKERELVASITYRGGNTYYADSVKGRFTISRDNAKNTVYLQMNSLKPEDTAVYYCARSGYQKVGGFRYDYWGQGTQVTVSS,low polyreactivity
7,QVQLVESGGGLVQAGGSLRLSCAASGSIFRLYTMGWYRQAPGKERELVAAISQSGGRTYYADSVKGRFTISRDNAKNTVYLQMNSLNPEDTAVYYCNAVGPYRPYGGQGAPYDYWGQGTQVTVSS,high polyreactivity
8,QVQLVESGGGLVQAGGSLRLSCAASGSIFRNYAMGWSRQAPGKERELVAAITSIGGGTYYADSVKGRFTISRDNAKNTVYLQMNSLKPEDTADYYCAADYGFYPYDYVYWGQGTQVTVSS,low polyreactivity
9,QVQLVESGGGLVQAGGSLRLSCAASGSIFRNYAMGWYRQAPGKERELVAAITRGGGSTYYADSVKGRFTISRDNAKNTVYLQMNSLKPEDTAVYYGAAGSTRERNPRYGYWGQGTQVTVSS,high polyreactivity
10,QVQLVESGGGLVQAGGSLRLSCAASGSIFRPNAMGWYRQAPGKERELVAAITWSGDSTYYADSVKGRFTISRDNAKNTVYLQMNSLKPEDTADYYCAADFTYQGSSANDYWGQGTQVTVSS,low polyreactivity
11,QVQLVESGGGLVQAGGSLRLSCAASGSIFRQYAMGWYRQAPGKDRELVAAIRSGGSTYYADSVQGRFTISRDNAKNTVYLQMNSLKPEDTAVYYCARGYSWSVGYPRVQDMDYWGQGTQVTVSS,high polyreactivity
12,QVQLVESGGGLVQAGGSLRLSCAASGSIFRRYAMGWNRQAPGKERELVAYISRSGGSTYYADSVKGRFTISRDNAKNTVYLQMNRLKPEDTAVYYCAAQRYRTGDSWGQGTQVTVSS,high polyreactivity
13,QVQLVESGGGLVQAGGSLRLSCAASGSIFRRYAMGWYRQAPGKEREFVAAITRSGGGTYYADSVKGRFTLSRDNAKNTVYLQMNSLIPEDTAVYYCAKDVFVQRSRYPEGDYWGQGTQVTVSS,high polyreactivity
14,QVQLVESGGGLVQAGGSLRLSCAASGSIFRRYAMGWYRQAPGKERELVAAISFSGYSTYYADSVKGRFTISRDNAKNTVYLQMNSLKPEDTAVYYCAARSQRHKLSRDYNYWGQGTQVTVSS,high polyreactivity
15,QVQLVESGGGLVQAGGSLRLSCAASGSIFRRYAMGWYRQAPGKERELVAGISSGGYTNYADSVKGRFTISRDNAKNTVYLQMNSLKPEDTAVYYCAAKQYRYVRYRPVDYWGQGTQVTVSS,high polyreactivity
16,QVQLVESGGGLVQAGGSLRLSCAASGSIFRSYAMGWYRQAPGKERELVAAIRSDGRTNYADSVKGRFTISRDNAKNTVYFQMNSLKPEDTAVYYCDANAYYSYWRSMDYWGQGTQVTVSS,low polyreactivity
17,QVQLVESGGGLVQAGGSLRLSCAASGSIFRSYAMGWYRQAPGKERELVAAISRRGGSTYYADSVKGRFTISRDNVKNTVYLQMNSLKPEDTAVYYCAADRTGPYDYWGQGTQVTVSS,high polyreactivity
18,QVQLVESGGGLVQAGGSLRLSCAASGSIFRSYAMGWYRQAPGKERELVAAISWDGGTTYYADSVKGRFTISRDNAKNTVYLQMNSLKPEDTAVYYCAADASLLGLFQGYDYRGQGTQVTVSS,low polyreactivity
19,QVQLVESGGGLVQAGGSLRLSCAASGSIFRSYAMGWYRQAPGKERELVAAITSGDSTYYADSVKGRFTISRDNAKNTVYLQMNSLKPEDTAVYYCATGLGSTDRSYEYWGQGTQVTVSS,low polyreactivity
20,QVQLVESGGGLVQAGGSLRLSCAASGSIFRSYAMGWYRQAPGKERELVASISRRGGSTYYADSVKGRFTISRDNAKNTVYLQMNSLKPEDTAVYYCAVESGYTRSSDYWGQGTQVTVSS,low polyreactivity
